Data from publication PMC3462482 (Nature structural & molecular biology, 2012).

Target: T1, PatGmac H618A (Prochloron sp., UniProt Q52QJ1 492-851, H618A)
T1 sequence: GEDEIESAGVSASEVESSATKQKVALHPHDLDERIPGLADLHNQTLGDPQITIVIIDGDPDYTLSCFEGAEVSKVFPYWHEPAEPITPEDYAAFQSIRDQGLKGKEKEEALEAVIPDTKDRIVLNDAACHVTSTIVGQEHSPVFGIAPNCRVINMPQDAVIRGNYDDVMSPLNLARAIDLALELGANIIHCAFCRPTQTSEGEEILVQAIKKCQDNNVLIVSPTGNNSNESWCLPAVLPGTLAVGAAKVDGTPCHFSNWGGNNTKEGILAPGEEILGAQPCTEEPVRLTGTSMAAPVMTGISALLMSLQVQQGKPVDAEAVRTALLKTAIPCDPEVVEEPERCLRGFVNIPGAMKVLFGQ
Test: crystal structure

VPAPIPFPAYDG [VPAPIPFPAYDG peptide (substrate mimic)]: binds.
